Data on three substances can be found in patent publication US20040180823A1.

The target in this assay is EphA4 receptor extracellular domain fused to a human Fc region (human). Kind of assay: inhibition of ephrin-A5 AP binding to EphA4.
Chain of EphA4 receptor extracellular domain fused to a human Fc region (human) (Q03137 20-547): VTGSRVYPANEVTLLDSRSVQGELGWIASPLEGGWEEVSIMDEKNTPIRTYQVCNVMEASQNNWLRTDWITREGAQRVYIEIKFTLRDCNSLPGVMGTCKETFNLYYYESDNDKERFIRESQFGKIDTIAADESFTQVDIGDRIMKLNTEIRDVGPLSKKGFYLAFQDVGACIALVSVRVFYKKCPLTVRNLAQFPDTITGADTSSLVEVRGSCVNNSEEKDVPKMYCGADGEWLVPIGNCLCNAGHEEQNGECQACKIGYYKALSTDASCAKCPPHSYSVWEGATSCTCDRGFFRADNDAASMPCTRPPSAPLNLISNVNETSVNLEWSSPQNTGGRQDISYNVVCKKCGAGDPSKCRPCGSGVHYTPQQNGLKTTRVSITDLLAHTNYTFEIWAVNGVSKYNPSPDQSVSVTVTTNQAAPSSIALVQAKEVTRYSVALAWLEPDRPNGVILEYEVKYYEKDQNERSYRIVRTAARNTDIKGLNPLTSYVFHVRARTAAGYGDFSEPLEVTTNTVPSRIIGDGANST

On to APY peptide (synthetic, biotinylated), for which the concentration required for similar levels of inhibition of ephrin-A5 AP binding stood at 10 µM. As for KYL peptide (synthetic, biotinylated), the concentration that almost completely inhibited ephrin-A5 AP binding stood at 1 µM. In the case of VTM peptide (synthetic, biotinylated), the concentration required for similar levels of inhibition of ephrin-A5 AP binding was 100 µM.
